Source: publication PMC2734569, “Functional mapping of the fission yeast DNA polymerase δ B-subunit Cdc1 by site-directed and random pentapeptide insertion mutagenesis” (BMC Molecular Biology, 2009)

Columns and labels:
Test in all cases: two-hybrid; LexA-Cdc1 bait (pBTM116 or pBTM116BN) with Gal4-Pol3 prey and co-expressed c-myc-tagged Cdc27 (pAA-Cdc27) in S. cerevisiae CTY10-5d; ONPG liquid culture beta-galactosidase assay, mean of triplicates, as percent of wild-type Cdc1
Conditions in all cases: partners not purified
Cdc1-J4 = target: T1, Cdc1-J4 (Schizosaccharomyces pombe, UniProt P87324 1-462, Ile-GlyValProArgIle-Asp)
T1 construct: Cdc1, S. pombe, with a pentapeptide inserted after residue 127; also called J5; J13; source: yeast two-hybrid fusion, in S. cerevisiae CTY10-5d
T1 sequence (looked up): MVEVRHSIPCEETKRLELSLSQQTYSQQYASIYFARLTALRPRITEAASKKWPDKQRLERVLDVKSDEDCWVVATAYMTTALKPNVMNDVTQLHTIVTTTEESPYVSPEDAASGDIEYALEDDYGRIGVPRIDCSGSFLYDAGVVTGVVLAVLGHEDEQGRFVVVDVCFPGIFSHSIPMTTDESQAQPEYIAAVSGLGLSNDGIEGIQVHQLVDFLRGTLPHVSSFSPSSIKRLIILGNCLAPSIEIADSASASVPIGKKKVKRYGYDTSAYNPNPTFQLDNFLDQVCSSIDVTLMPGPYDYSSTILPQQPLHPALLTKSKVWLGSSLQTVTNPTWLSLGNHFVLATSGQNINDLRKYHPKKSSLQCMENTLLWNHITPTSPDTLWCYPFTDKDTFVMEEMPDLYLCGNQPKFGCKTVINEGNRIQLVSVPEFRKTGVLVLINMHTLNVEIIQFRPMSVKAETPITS

Cdc1-A9 = target: T2, Cdc1-A9 (Schizosaccharomyces pombe, UniProt P87324 1-462, Pro292Ala | Gly293Ala)
T2 construct: Cdc1, S. pombe, double point mutant (A1 and A2 combined); source: yeast two-hybrid fusion, in S. cerevisiae CTY10-5d
T2 sequence (looked up): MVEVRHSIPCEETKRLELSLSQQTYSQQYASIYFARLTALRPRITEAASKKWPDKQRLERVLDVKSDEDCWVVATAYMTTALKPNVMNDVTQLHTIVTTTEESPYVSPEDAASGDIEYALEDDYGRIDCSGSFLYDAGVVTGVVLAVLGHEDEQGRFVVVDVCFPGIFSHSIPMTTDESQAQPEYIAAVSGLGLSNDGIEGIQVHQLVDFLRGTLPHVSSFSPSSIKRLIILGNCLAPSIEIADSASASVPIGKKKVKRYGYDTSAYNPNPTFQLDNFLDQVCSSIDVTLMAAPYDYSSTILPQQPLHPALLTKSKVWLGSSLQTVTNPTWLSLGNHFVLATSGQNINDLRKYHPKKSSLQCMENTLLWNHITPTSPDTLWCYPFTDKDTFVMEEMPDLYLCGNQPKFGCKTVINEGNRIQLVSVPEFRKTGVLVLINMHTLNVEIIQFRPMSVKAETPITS

Cdc1-A6 = target: T3, Cdc1-A6 (Schizosaccharomyces pombe, UniProt P87324 1-462, Pro329Ala)
T3 construct: Cdc1, S. pombe, point mutant; source: yeast two-hybrid fusion, in S. cerevisiae CTY10-5d
T3 sequence (looked up): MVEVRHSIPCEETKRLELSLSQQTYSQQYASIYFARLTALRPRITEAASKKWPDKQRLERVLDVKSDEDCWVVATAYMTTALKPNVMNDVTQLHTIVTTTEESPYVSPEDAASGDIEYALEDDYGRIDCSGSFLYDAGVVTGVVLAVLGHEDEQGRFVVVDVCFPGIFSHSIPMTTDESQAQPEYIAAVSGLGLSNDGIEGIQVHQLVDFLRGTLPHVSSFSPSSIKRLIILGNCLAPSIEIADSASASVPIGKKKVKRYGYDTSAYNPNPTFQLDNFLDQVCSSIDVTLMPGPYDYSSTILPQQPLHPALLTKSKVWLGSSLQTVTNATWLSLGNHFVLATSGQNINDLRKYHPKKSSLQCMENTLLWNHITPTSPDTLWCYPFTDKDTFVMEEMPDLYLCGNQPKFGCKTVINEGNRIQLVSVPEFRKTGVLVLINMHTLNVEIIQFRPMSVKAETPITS

Cdc1-A3 = target: T4, Cdc1-A3 (Schizosaccharomyces pombe, UniProt P87324 1-462, Asp296Ala)
T4 construct: Cdc1, S. pombe, point mutant; source: yeast two-hybrid fusion, in S. cerevisiae CTY10-5d
T4 sequence (looked up): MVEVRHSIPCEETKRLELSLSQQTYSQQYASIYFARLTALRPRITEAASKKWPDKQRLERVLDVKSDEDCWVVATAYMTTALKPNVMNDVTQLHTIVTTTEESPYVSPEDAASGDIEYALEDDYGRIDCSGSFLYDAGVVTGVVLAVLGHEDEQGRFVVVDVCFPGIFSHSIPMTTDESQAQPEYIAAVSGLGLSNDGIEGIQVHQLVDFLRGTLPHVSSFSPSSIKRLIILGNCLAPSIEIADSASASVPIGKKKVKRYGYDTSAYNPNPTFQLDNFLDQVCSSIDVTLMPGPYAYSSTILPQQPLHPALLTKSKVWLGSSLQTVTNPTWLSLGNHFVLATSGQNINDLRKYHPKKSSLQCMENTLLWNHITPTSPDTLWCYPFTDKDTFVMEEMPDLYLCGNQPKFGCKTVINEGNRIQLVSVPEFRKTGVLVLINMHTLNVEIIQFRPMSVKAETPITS

B1: Pol3 (fission yeast DNA polymerase delta catalytic subunit) (natural protein, Schizosaccharomyces pombe, UniProt P30316 1-1086, looked up)
chain: MTDRSSNEGVVLNKENYPFPRRNGSIHGEITDVKRRRLSERNGYGDKKGSSSKEKTSSFEDELAEYASQLDQDEIKSSKDQQWQRPALPAINPEKDDIYFQQIDSEEFTEGSVPSIRLFGVTDNGNSILVHVVGFLPYFYVKAPVGFRPEMLERFTQDLDATCNGGVIDHCIIEMKENLYGFQGNEKSPFIKIFTTNPRILSRARNVFERGEFNFEELFPVGVGVTTFESNTQYLLRFMIDCDVVGMNWIHLPASKYQFRYQNRVSNCQIEAWINYKDLISLPAEGQWSKMAPLRIMSFDIECAGRKGVFPDPSIDPVIQIASIVTQYGDSTPFVRNVFCVDTCSQIVGTQVYEFQNQAEMLSSWSKFVRDVDPDVLIGYNICNFDIPYLLDRAKSLRIHNFPLLGRIHNFFSVAKETTFSSKAYGTRESKTTSIPGRLQLDMLQVMQRDFKLRSYSLNAVCSQFLGEQKEDVHYSIITDLQNGTADSRRRLAIYCLKDAYLPQRLMDKLMCFVNYTEMARVTGVPFNFLLARGQQIKVISQLFRKALQHDLVVPNIRVNGTDEQYEGATVIEPIKGYYDTPIATLDFSSLYPSIMQAHNLCYTTLLDSNTAELLKLKQDVDYSVTPNGDYFVKPHVRKGLLPIILADLLNARKKAKADLKKETDPFKKAVLDGRQLALKVSANSVYGFTGATNGRLPCLAISSSVTSYGRQMIEKTKDVVEKRYRIENGYSHDAVVIYGDTDSVMVKFGVKTLPEAMKLGEEAANYVSDQFPNPIKLEFEKVYFPYLLISKKRYAGLFWTRTDTYDKMDSKGIETVRRDNCPLVSYVIDTALRKMLIDQDVEGAQLFTKKVISDLLQNKIDMSQLVITKALSKTDYAAKMAHVELAERMRKRDAGSAPAIGDRVAYVIIKGAQGDQFYMRSEDPIYVLENNIPIDAKYYLENQLSKPLLRIFEPILGEKASSLLHGDHTRTISMAAPSVGGIMKFAVKVETCLGCKAPIKKGKTALCENCLNRSAELYQRQVAQVNDLEVRFARLWTQCQRCQGSMHQDVICTSRDCPIFYMRIAEHKKLQQSVDLLKRFDEMSW
notes: DNA polymerase delta catalytic subunit Pol3, S. pombe; prey plasmid named pACT-Pol3 in the results and pGAD2F-Pol3 in the methods; also called Gal4-Pol3; pACT-Pol3; source: yeast two-hybrid fusion, in S. cerevisiae CTY10-5d
For B1, the “two-hybrid beta-galactosidase activity, % of wild-type Cdc1” value (Cdc1-J4) was 36%, the “two-hybrid beta-galactosidase activity, % of wild-type Cdc1” value (Cdc1-A9) was < 1% and the “two-hybrid beta-galactosidase activity, % of wild-type Cdc1” value (Cdc1-A6) was < 1%. For the same binder, the “two-hybrid beta-galactosidase activity, % of wild-type Cdc1” value (Cdc1-A3) was < 1%.
